{"source": "patent US11931406", "key": {"[1]": {"molecular_target": "YFV X-SS-prME-XX (yellow fever virus 17D) (yellow fever virus strain 17D) (UniProt P03314)", "sequence (P03314 92-788 limits assumed)": "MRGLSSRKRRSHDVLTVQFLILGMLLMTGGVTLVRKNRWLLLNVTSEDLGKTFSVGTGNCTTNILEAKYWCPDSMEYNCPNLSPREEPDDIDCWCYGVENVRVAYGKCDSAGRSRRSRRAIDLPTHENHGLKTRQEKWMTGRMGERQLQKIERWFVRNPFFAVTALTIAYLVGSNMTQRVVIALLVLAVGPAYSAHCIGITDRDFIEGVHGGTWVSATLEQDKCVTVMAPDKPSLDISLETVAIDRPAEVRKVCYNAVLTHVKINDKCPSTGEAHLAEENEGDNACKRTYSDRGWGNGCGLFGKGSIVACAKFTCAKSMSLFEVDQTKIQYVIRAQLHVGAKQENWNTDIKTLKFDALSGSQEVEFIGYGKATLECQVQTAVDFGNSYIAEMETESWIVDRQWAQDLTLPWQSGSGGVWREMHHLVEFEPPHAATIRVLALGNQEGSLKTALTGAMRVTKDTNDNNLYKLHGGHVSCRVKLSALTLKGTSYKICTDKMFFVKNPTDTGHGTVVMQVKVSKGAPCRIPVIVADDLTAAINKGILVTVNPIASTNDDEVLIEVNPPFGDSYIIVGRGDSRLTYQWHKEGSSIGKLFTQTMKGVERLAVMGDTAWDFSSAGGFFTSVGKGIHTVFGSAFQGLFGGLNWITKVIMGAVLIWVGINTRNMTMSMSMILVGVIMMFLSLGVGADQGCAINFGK"}, "[2]": {"molecular_target": "influenza HA protein (Flu A HA) (influenza A)"}}, "data": [{"substance": "anti YF virus specific antibody (sc-58083 from Santa Cruz)", "values": [{"measurement": "FITC positive cells", "setting": "[1]", "value": 82, "unit": "%"}, {"measurement": "FITC positive cells", "setting": "[2]", "value": 45.1, "unit": "%"}]}]}
